The values that follow come from article PMC8850972, “Unraveling the Glucosylation of Astringency Compounds of Horse Chestnut via Integrative Sensory Evaluation, Flavonoid Metabolism, Differential Transcriptome, and Phylogenetic Analysis” (Frontiers in Plant Science, 2022).

Substrate in data set [1]: O=c1c(O)c(-c2ccc(O)cc2)oc2cc(O)cc(O)c12
The experiment in a line: UPLC-MS/MS glucosyltransferase kinetics. Type of data set: biochemical, Aesculus chinensis. To be noted: UDP-glucose 2 mM, pH 7.0 Tris-HCl, 10 mM DTT, 37 °C.

Substrate in data set [2]: O=c1c(O)c(-c2ccc(O)c(O)c2)oc2cc(O)cc(O)c12
The experiment in a line: UPLC-MS/MS glucosyltransferase kinetics. It is filed as biochemical, Aesculus chinensis. To be noted: UDP-glucose 2 mM, pH 7.0 Tris-HCl, 10 mM DTT, 37 °C.

B1: AcUGT1 (Aesculus chinensis) (protein)
chain: MQKAELVFIPLPGVSHLISTVEIAKLLVGRDDRLSITVLIIKFPNFDSNVIAAYTRSLDRIKFIDLPNHFSDSDNSRTLFFSIIESQKPHVKEAVTKLTQSESLPAADSPRLAGFVLDMFCTCMIDVANDFGVPSYIFFTSGAAFLGLMFHAQFLHDELGKSTTDFKDSESDAELVVPSLANPVPARVLPSAMLSKEWSMHLNELSRRFRTTKGIMVNTFAELESYAVNSLSDGSKTQIPPLYPVGPILNLNGDNHVPERKAEIMEWLDDQPPSSVVFLCFGSMGSFDGDQLKEIACALEQSGHRFLWSVRQSPPKDKDKDKIVIPNDCENLTDVLPEGFLDRTVGIGKVIGWAPQVAVLGHPAVGGFVSHCGWNSTLESIWFGVPIATWPIYAEQQLNAFEMVRELGLAVEIKMDYRKDFITESVVELVTAEEIERGIRRLMESDNNDIRKKVKEMSEKSRRALMDGGSSFSSLGRFIGDVIDNIS
notes: cloned from mixed leaf, flower and seed cDNA into pMAL-c2x (MBP-fusion vector), expressed in Escherichia coli
In the case of B1, the Km came out at 22.62 µM in data set [1] and 1.02 ± 0.23 µM in data set [2]. Further, in data set [2], the kcat is 5.34±0.01(10^-3) S^-1.

B2: AcUGT26 (Aesculus chinensis) (protein)
chain: MSSSRSQSHHVILFPFMSKGHTIPLLHLAQLLLRRPRVAVTVFTTPANRPFTSNFLRNTAASIIDLPFPENVPEIAPGIESTDKLPSMSLFVPFARATKLMQPDFERAVEAMPRVSFLVSDGFLWWTLESATKFGFPRFVFYGMNNYSGCVCRAVVENRLLYGRKSDDELVTVTGFPWIKVTRNDFEPTFTDPEPKGPMFDLVIDQVIATSNSYGLIVNSFYELESLFVEHKNREAKPKVWCVGPLCLADPLRVQDQLPPHQKPTWIQWLDQKLEQGRSVLYVAFGTQAEISEEQVKEISSGLEESKVNFLWVIRKKESELGDGFEKRVKERGLIVREWVDQREMLLHQSIHGFLSHCGWNSVMESICAGVPILAWPMMAEQPLNARMVVEEIKVGLRVETCNGSVRGFVKKEGLEKMVKELMEGEKGKEVRKKAKEYAEMARKAMDEDNGSSCRTLDMLMAEISNSKSQDKMEV
notes: as for B1
Take B2: in data set [2], the Km stood at 2.23 ± 0.06 µM and the kcat was 0.65±0.02(10^-3) S^-1.

A word on the Km: it is the substrate concentration at which the rate is half of its maximum.
